We go through one molecule from PMC11407943, “Cdc14 phosphatases use an intramolecular pseudosubstrate motif to stimulate and regulate catalysis” (The Journal of Biological Chemistry, 2024).

As usually defined, the Kd is the concentration at which binding is half-saturated.

Substitutions are numbered along the chain they refer to. Starred links: 1 amine or outer side, 2 acyl side, 3 side chain; linkers in the order of their positions; H or OH if unused. Non-standard residues stand in square brackets, D forms with d. No end group written: not given here. pCF2‑Ser = (α,α-difluoromethylene)phosphonoserine, O=C([C@H](CC(F)(F)P(=O)(O)O)N[*:1])[*:2]

The target of assay [1] is T1, ScCdc14^1-449 (S. cerevisiae, UniProt Q00684 1-449).
T1 construct: Expressed from pDEST17; also called Saccharomyces cerevisiae Cdc14 truncation that retains the SLiCE motif; source: E. coli, purified (HisTrap nickel sepharose)
T1 sequence (looked up): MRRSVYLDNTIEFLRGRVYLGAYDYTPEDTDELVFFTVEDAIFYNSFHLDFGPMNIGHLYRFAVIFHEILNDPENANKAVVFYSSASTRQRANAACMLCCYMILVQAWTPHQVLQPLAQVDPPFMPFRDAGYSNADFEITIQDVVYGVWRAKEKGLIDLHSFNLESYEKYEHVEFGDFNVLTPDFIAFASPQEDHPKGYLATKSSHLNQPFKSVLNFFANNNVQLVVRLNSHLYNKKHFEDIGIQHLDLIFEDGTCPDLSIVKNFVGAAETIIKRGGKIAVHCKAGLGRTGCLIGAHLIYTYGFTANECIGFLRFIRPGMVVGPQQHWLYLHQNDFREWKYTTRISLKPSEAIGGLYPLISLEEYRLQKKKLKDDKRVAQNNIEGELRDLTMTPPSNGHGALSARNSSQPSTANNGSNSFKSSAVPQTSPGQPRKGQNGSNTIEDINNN
Particulars: both partners purified.

Assay [2] concerns the target T2, ScCdc14^P433A/K435A (S. cerevisiae, UniProt Q00684 1-449, P433A | K435A).
T2 construct: source: E. coli, purified (HisTrap nickel sepharose)
T2 sequence (looked up): T1 sequence (looked up) with P433A, K435A
Conditions: both partners purified.

With EV[pCF2‑Ser]PTKR [EV(pCF2-Ser)PTKR], the Kd in assay [1] worked out at 6 ± 2 µM; in assay [2] it was 13 ± 4 µM.
